Data published in article PMC10398351, “Structural and molecular insight into antibody recognition of dynamic neoepitopes in membrane tethered MUC1 of pancreatic cancer cells and secreted exosomes” (RSC Chemical Biology, 2023).

Assays:
MUC1 TRD-Tn (3) = experiment: SPR; Biacore 2000; MUC1 TRD models 2-4 immobilised on a CM5 chip by maleimide coupling through a C-terminal cysteine; SN-131 Fab injected; bivalent binding model
MUC1-ST (4) = experiment: as above

B1: SN-131 Fab (Fab, V domains shown)
VH: QVQLQQSGAELARPGASVKLSCKASGYTFTNYGLSWVKQRTGQGLEWIGENHPGSGIIYHNEKFRGKATLTADKSSSTAYVQLSSLTSEDSAVYFCARSSGTRGFAYWGQGTLVTVSA
VL: DVLMTQTPLSLPVSLGDQASISCRSSQSIVHSNGNTYLEWYLQKPGQSPKLLIYKVSNRFSGVPDRFSGSGSGTDFTLKISRVEAEDLGVYYCFQGSHGPWTFGGGTKLEIK
- Kd (MUC1 TRD-Tn (3)): 3.78 nM
- Kd (MUC1-ST (4)): 1.58 nM
